Experimental data published in patent CN114773459A (UNIV SHENZHEN, dated 2022).

Biological target: 新型冠状病毒(SARS-CoV-2) S1蛋白 (野生型) (SARS-CoV-2, UniProt P0DTC2 16-685)

B1: 纳米抗体Nb-H6 (VHH)
VHH: QLVESGGGLVQAGDSLRLSCAASERALSSFHMGWFRQAPGKQRAFVAAIKWRDGTTYYADSVKGRFTISRDNAKNTVYLQMNSLEPEDTAVYYCYYRGRWGTYWGQGTQVTVSS
  IC50: 9.8 µM
